# In patent US10870691B2, “Antibodies and fragments thereof that bind hepatitis B virus protein X” (priority 2018, dated 2020):
# Where two headings read alike, the source gives them in different places. Ends that are not written are not given here.
# B1: HBx M19: mouse monoclonal antibody against HBx; heavy chain SEQ ID NO: 27, light chain SEQ ID NO: 30 (Table 1) (antibody)
# heavy: EVQLQQSGPELVKPGASVKISCQASGYTFTDYYMNWVKQSHGKRLEWIGDINPNNGGTAYNQKFKGKATLTVDRSSSTAYMEVRSLTSEDSAVYFCALLAYWGQGTLVTVSAAKTTPPSVYPLAPGSAAQTNSMVTLGCLVKGYFPEPVTVTWNSGSLSSGVHTFPAVLQSDLYTLSSSVTVPSSTWPSQTVTCNVAHPASSTKVDKKIVPRDCGCKPCICTVPEVSSVFIFPPKPKDVLTITLTPKVTCVVVDISKDDPEVQFSWFVDDVEVHTAQTKPREEQINSTFRSVSELPIMHQDWLNGKEFKCRVNSAAFPAPIEKTISKTKGRPKAPQVYTIPPPKEQMAKDKVSLTCMITNFFPEDITVEWQWNGQPAENYKNTQPIMDTDGSYFVYSKLNVQKSNWEAGNTFTCSVLHEGLHNHHTEKSLSHSPGK
# light: DVVMTQTPLSLPVSLGDQASISCRSSQSLVYSDGNTHLHWYLQKTGQSPKLLIYKASNRFSGVPDRFSGSGSGTDFTLKISRVEAEDLGVYFCSQSTHVPLTFGAGTKLELKRADAAPTVSIFPPSSEQLTSGGASVVCFLNNFYPKDINVKWKIDGSERQNGVLNSWTDQDSKDSTYSMSSTLTLTKDEYERHNSYTCEATHKTSTSPIVKSFNRGEC
# Assays:
# HBx [1] = details: HBV-infected PHH, confocal microscopy (FIGS. 8B, 9B, 10B)
# Smc6 = assay: Confocal microscopy of Smc6 in HBV-infected PHH after treatment; type: cell-based, human; details: confocal microscopy (FIGS. 8B, 10B)
# Procedure: (§1) siRNA transfections were performed using Lipofectamine RNAiMax.
# HBV = assay: Extracellular HBV DNA quantification (qPCR) in HBV-infected PHH; type: cell-based, HBV genotype D in primary human hepatocytes; details: siRNA 25 nM transfected or ETV treatment from day 6 post-infection (FIGS. 8A, 9A, 10A)
# Procedure: PHH were infected with HBV or HBVΔX (1000 genomic equivalents/cell) or transduced with lentiviruses as described previously (Niu, et al., PLoS One (2017) 12:e0169648).
# as §1
# Extracellular HBeAg and HBV DNA were measured as previously described (Niu, et al., PLoS One (2017) 12:e0169648, 29). HBeAg levels were measured by enzyme-linked immunosorbent assay or electrochemiluminescence assay (Meso Scale Discovery, Rockville, Md.). Extracellular HBV DNA was purified from cell-culture medium using a DNeasy 96 Blood & Tissue Kit (Qiagen) and quantified by qPCR on a QuantStudio 7 Flex Real-Time PCR System (ThermoFisher Scientific) using primers and a probe designed to the HBx region of the HBV genome; forward primer: 5′-CCGTCTGTGCCTTCTCATCTG-3′; reverse primer: 5′-AGT CCA AGA GTY CTC TTA TGY AAG ACC TT-3′; probe: 5′/56-FAM/CCG TGT GCA/ZEN/CTT CGC TTC ACC TCT GC/3IABkFQ/3′. HBV DNA levels were normalized to β-actin.
# [2] = Mouse immunization with peptide-BSA conjugate; type: in vivo; details: 10 μg peptide-BSA conjugate plus 1 μg adjuvant, biweekly injections, CD-1 mice
# Procedure: (§3) Two of these HBx peptides were individually conjugated to BSA and three NZB/W, three CD-1, and three BALB/c mice were immunized with 10 μg peptide-BSA conjugate plus 1 μg adjuvant (ALD and MDP in a 1:1 ratio). Biweekly injections were performed using a “rapid” immunization protocol developed by Antibody Solutions. […] The top 50 candidates were further evaluated by confocal imaging of HBV-infected PHH.
# [3] = system: recombinant HBx-DDB1 fusion protein; assay: HBx ELISA, binding to recombinant HBx-DDB1 fusion protein; parameters: species or system HBV; details: 100 ng/mL antibody, varying concentrations of fusion protein
# Procedure: Mouse monoclonal anti-HBx antibodies were developed by Antibody Solutions (Sunnyvale, Calif.). Antibody candidates were screened by enzyme-linked immunosorbent assay (ELISA) using recombinant HBx-DDB1 fusion protein and then by confocal microscopy on HBV infected PHH.
# Antibody candidates were screened by ELISA. […] Signal strength was measured as absorbance at 450 nm.
# HBx69-87 peptide = HBx69-87 peptide (Hepatitis B virus genotype D subtype ayw, UniProt P03165); details: 100 ng/mL antibody, varying concentrations of HBx peptide
# Procedure: (§2) Antibody candidates were screened by ELISA. Briefly, sulfhydryl plates were coated with 36 ng/mL recombinant HBx-DDB1 fusion protein, blocked and then incubated with 50 μL of undiluted hybridoma supernatant. Signal was detected colorimetrically with a goat anti-mouse-HRP antibody (Jackson Immuno Research, West Grove, Pa.) and incubation with TMB substrate solution (MossBio, Pasadena, Mass.). Signal strength was measured as absorbance at 450 nm. ELISA profiling of mAbs was performed using 100 ng/mL antibody with varying concentrations of recombinant HBx-DDB1 fusion protein or HBx peptide.
# HBx27-50 peptide = HBx27-50 peptide (Hepatitis B virus genotype D subtype ayw, UniProt P03165); details: 100 ng/mL antibody, varying concentrations of HBx peptide
# Procedure: as §2
# HBx [4] = details: for detection of HBx by Western blot in PHH transduced with Myc-HBx lentivirus: Myc-tagged HBx genotype D, lysates day 3 post-transduction; for HBx genotype recognized by Western blot: PHH transduced with lentiviruses expressing HBx genotype A-E; for detection of HBx by Western blot in HBV-infected PHH: lysates day 4 post-infection
# Procedure: For Western blotting experiments, PHH were transduced with Myc-HBx-expressing lentivirus or were infected with wild-type HBV, HBx-negative HBV (HBVΔX), or were mock-infected.
# Western blotting was performed as previously described (Decorsière, et al., Nature (2016) 531:386-389). Briefly, PHH were transduced with a lentivirus expressing 3xMyc-HBx (HBV genotype A, B, C, D or E) or infected with wild-type HBV, HBVΔX, or mock-infected. On the indicated day post-transduction or post-infection, lysates were collected by adding 0.25 mL 1× cell lysis buffer (Cell Signaling) combined with protease inhibitor cocktail (ThermoFisher Scientific) and scraping to remove the cells from the plates. Membranes were probed with 1:250 diluted mouse monoclonal anti-Smc6 (Abgent), 1:1000 diluted mouse monoclonal c-Myc (LifeSpan Biosciences), 1:250 diluted mouse monoclonal anti-HBx mAb (15 μg/mL final concentration), and 1:2000 diluted rabbit monoclonal anti-GAPDH (Cell Signaling). IRDye 680RD goat anti-rabbit or IRDye 800CW goat anti-mouse IgG (LI-COR, Lincoln, Nebr.) at a 1:5000 dilution were used as secondary antibodies. Blots were visualized using an Odyssey Infrared Imaging System (LI-COR).
# HBx [5] = biological target: HBx (Hepatitis B virus genotype D subtype ayw, UniProt P03165); details: top 50 candidates, HBV-infected PHH
# Sequence of HBx (Hepatitis B virus genotype D subtype ayw, UniProt P03165) (P03165 whole entry): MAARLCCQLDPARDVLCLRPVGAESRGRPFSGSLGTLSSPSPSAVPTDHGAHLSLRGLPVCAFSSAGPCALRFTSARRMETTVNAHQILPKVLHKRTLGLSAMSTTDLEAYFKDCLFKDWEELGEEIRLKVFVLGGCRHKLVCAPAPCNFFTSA
# Procedure: as §3
molecule,measurement,setting,value
"C=C1[C@H](CO)[C@@H](O)C[C@@H]1n1cnc2c(=O)[nH]c(N)nc21 [ETV, entecavir]",change in percentage of HBx-positive cells,HBx [1],Neither ETV nor siCtrl significantly reduced
same,change in percentage of Smc6-positive cells,Smc6,Neither ETV nor siCtrl significantly reduced the percentage of HBx-positive cells or increased the percentage of Smc6-positive cells
same,extracellular HBV DNA levels,HBV,significantly reduced
"HBx27-50: HBx AD38 (genotype D) residue 27-50 peptide, conjugated to BSA for immunization (GRPFSGSLGTLSSPSPSAVPTDHG; also: conjugated to BSA)",immunogenicity of peptide-BSA conjugate,[2],immunogenic
B1,binding to recombinant HBx-DDB1 fusion protein by ELISA,[3],bound
same,binding to HBx69-87 control peptide by ELISA,HBx69-87 peptide,did not bind
same,binding to HBx27-50 peptide by ELISA,HBx27-50 peptide,potently bound
same,detection of HBx by Western blot in PHH transduced with Myc-HBx lentivirus,HBx [4]; listed as HBx mAb,detected a 17 kDa protein
same,detection of HBx by Western blot in PHH transduced with Myc-HBx lentivirus,HBx [4]; listed as αHBx mAb,detected
same,HBx genotype recognized by Western blot,HBx [4]; listed as HBx mAb,primarily recognizes genotype D HBx
same,HBx genotype recognized by Western blot,HBx [4]; listed as anti-HBx mAb,selective for genotype D HBx
same,sensitivity in Western blot analysis versus the other mAb,HBx [4]; lentivirus-expressed HBx in PHH,superior sensitivity
same,detection of HBx by Western blot in HBV-infected PHH,HBx [4]; listed as HBx mAb,detects a 17 kDa band
same,detection of HBx by Western blot in HBV-infected PHH,HBx [4]; listed as anti-HBx mAb,able to detect physiologically relevant levels of HBx protein
same,detection of HBx by Western blot in HBV-infected PHH,HBx [4]; listed as αHBx mAb,detected
same,selectivity and sensitivity of hybridoma clones by confocal imaging,HBx [5],most selective and sensitive
